Results reported in patent US20200405854A1, “Combination Therapies Comprising Daratumumab, Bortezomib, Thalidomide and Dexamethasone and Their Uses” (Janssen Biotech, Inc., priority 2019, published 2020).
Read-outs that look alike come from different tables or passages of the source.

How the values were obtained:
[1] = Clinical pharmacokinetics; format: in vivo, human
[2] = Cardiac electrophysiology; settings: non-clinical or clinical data
[3] = system: patients with multiple myeloma
[4] = system: NK cells; assay: Pharmacodynamics, NK cells; format: in vivo, human; settings: peripheral whole blood and bone marrow
From the text: NK cells express CD38 and are susceptible to daratumumab mediated cell lysis.

[5] = system: adult patients with relapsed and refractory multiple myeloma; assay: Monotherapy safety, three open-label clinical trials; format: in vivo, human
From the text: Serious adverse reactions were reported in 51 (33%) patients.

[6] = system: patients with multiple myeloma; assay: Immunogenicity, anti-daratumumab antibodies; format: in vivo, human
From the text: As with all therapeutic proteins, there is the potential for immunogenicity. The detection of antibody formation is highly dependent on the sensitivity and specificity of the assay. Additionally, the observed incidence of antibody (including neutralizing antibody) positivity in an assay may be influenced by several factors including assay methodology, sample handling, timing of sample collection, concomitant medications, and underlying disease. For these reasons, comparison of the incidence of antibodies to daratumumab in the studies described below with the incidence of antibodies in other studies or to other products may be misleading. […] One patient administered DARZALEX as combination therapy, developed transient neutralizing antibodies against daratumumab. However, this assay has limitations in detecting anti-daratumumab antibodies in the presence of high concentrations of daratumumab; therefore, the incidence of antibody development might not have been reliably determined.

[7] = system: patients with relapsed or refractory multiple myeloma; assay: SIRIUS open-label monotherapy trial, efficacy; format: in vivo, human
From the text: (§1) Treatment continued until unacceptable toxicity or disease progression.
The median patient age was 63.5 years (range: 31 to 84 years), 49% were male and 79% were Caucasian. Patients had received a median of 5 prior lines of therapy. […] Prior therapies included bortezomib (99%), lenalidomide (99%), pomalidomide (63%) and carfilzomib (50%).

[8] = system: patients with relapsed or refractory multiple myeloma; assay: Study GEN501 open-label dose escalation monotherapy trial, efficacy; format: in vivo, human
From the text: as §1
Seventy-four percent of patients had received prior ASCT. Prior therapies included bortezomib (100%), lenalidomide (95%), pomalidomide (36%) and carfilzomib (19%).

[9] = system: patients with newly diagnosed multiple myeloma eligible for ASCT; assay: CASSIOPEIA, adverse reactions and laboratory abnormalities
[10] = biological target: T1, CD38 on red blood cells (RBCs) (Homo sapiens, UniProt P28907); assay: Indirect Antiglobulin Test (Indirect Coombs test) interference
T1 construct: endogenous in cells; host or cells: red blood cells (reagent RBCs / donor RBCs in blood-bank testing)
From the text: Daratumumab binds to CD38 on red blood cells (RBCs) and results in a positive Indirect Antiglobulin Test (Indirect Coombs test). Daratumumab-mediated positive indirect antiglobulin test may persist for up to 6 months after the last daratumumab infusion. Daratumumab bound to RBCs masks detection of antibodies to minor antigens in the patient's serum [see References (15)]. The determination of a patient's ABO and Rh blood type are not impacted [see Drug Interactions (7.1)].
Daratumumab binds to CD38 on RBCs and interferes with compatibility testing, including antibody screening and cross matching. Daratumumab interference mitigation methods include treating reagent RBCs with dithiothreitol (DTT) to disrupt daratumumab binding [see References (15)] or genotyping. Since the Kell blood group system is also sensitive to DTT treatment, K-negative units should be supplied after ruling out or identifying alloantibodies using DTT-treated RBCs.

[11] = Solution pH and storage of diluted solution; format: physicochemical
From the text: Prepare the solution for infusion using aseptic technique as follows: • Calculate the dose (mg), total volume (mL) of DARZALEX solution required and the number of DARZALEX vials needed based on patient actual body weight. • Check that the DARZALEX solution is colorless to pale yellow. […] Infusion bags/containers must be made of either polyvinylchloride (PVC), polypropylene (PP), polyethylene (PE) or polyolefin blend (PP+PE). Dilute under appropriate aseptic conditions. Discard any unused portion left in the vial. • Gently invert the bag/container to mix the solution. […] The diluted solution may develop very small, translucent to white proteinaceous particles, as daratumumab is a protein. […] (59° F.−77° F.) and in room light. Diluted solution may be kept at room temperature for a maximum of 15 hours (including infusion time). • If not used immediately, the diluted solution can be stored prior to administration for up to 24 hours at refrigerated conditions 2° C.−8° C. (36° F.−46° F.) and protected from light.
DARZALEX is supplied as a colorless to pale yellow preservative-free solution for intravenous infusion in single-dose vials. The pH is 5.5.

Substance: DARZALEX: immunoglobulin G1 kappa (IgG1κ) human monoclonal antibody against CD38 antigen; HC SEQ ID NO: 9, LC SEQ ID NO: 10
- area under the concentration-time curve (AUC), dose dependence ([1]; 1 to 24 mg/kg monotherapy or 1 to 16 mg/kg combination therapy): increases more than proportionally
- drug-drug interactions between daratumumab and lenalidomide, pomalidomide, bortezomib and dexamethasone ([1]; clinical pharmacokinetic assessments): no clinically relevant drug-drug interactions
- terminal half-life compared with monotherapy ([1]; combination therapy): similar
- volume of distribution ([1]; combination therapy): 4.4 ± 1.5 L
- trough serum concentration (Cmin), mean±SD ([1]; end of weekly dosing, monotherapy): 573 ± 332 µg/mL
- central volume of distribution and clearance with increasing body weight ([1]; human, in vivo): increased
- clearance with increasing dose and with multiple dosing ([1]; human, in vivo): decreased
- linear clearance, mean±SD ([1]; monotherapy): 171.4 ± 95.3 mL/day
- terminal half-life associated with linear clearance, mean±SD ([1]; monotherapy): 18 ± 9 days
- volume of distribution ([1]; monotherapy): 4.7 ± 1.3 L
- differences in pharmacokinetics based on sex, age, mild and moderate hepatic impairment, or renal impairment ([1]; monotherapy or combination therapy): No clinically significant differences
- time to steady state ([1]; monotherapy, into the every 4-week dosing period (by the 21st infusion)): approximately 5 months
- potential to delay ventricular repolarization [2]: no evidence
- incidence of any grade infusion reactions ([3]; Week 2 infusion): 2%
- Grade 3/4 infusion reaction ([3]; Week 2 or subsequent infusions): Less than 1%
- incidence of any grade infusion reactions ([3]; cumulatively, subsequent infusions): 6%
- incidence of any grade infusion reactions ([3]; first (16 mg/kg, Week 1) infusion): 37%
- incidence of infusion modification due to reactions ([3]; human, in vivo): 36%
- Hepatitis B virus reactivation ([3]; including fatal cases): less than 1%
- time of infusion reactions after completing DARZALEX ([3]; nearly all reactions, during infusion or within): ≤ 4 h
- time of infusion reactions after infusion ([3]; prior to the introduction of post-infusion medication): up to 48 hours
- patients who experienced an infusion reaction ([3]; share of all patients in clinical trials): approximately half
- absolute counts and percentages of total NK cells and activated NK cells [4]: Decreases
- Anemia, laboratory abnormality ([5]; Any Grade): 45%
- Arthralgia ([5]; Any Grade): 17%
- Back pain ([5]; Any Grade): 23%
- Chills ([5]; Any Grade): 10%
- Constipation ([5]; Any Grade): 15%
- Cough ([5]; Any Grade): 21%
- Decreased appetite ([5]; Any Grade): 15%
- Diarrhea ([5]; Any Grade): 16%
- Dyspnea ([5]; Any Grade): 15%
- Fatigue ([5]; Any Grade): 39%
- Headache ([5]; Any Grade): 12%
- Hypertension ([5]; Any Grade): 10%
- Infusion reaction ([5]; Any Grade): 48%
- Lymphopenia, laboratory abnormality ([5]; Any Grade): 72%
- Musculoskeletal chest pain ([5]; Any Grade): 12%
- Nasal congestion ([5]; Any Grade): 17%
- Nasopharyngitis ([5]; Any Grade): 15%
- Nausea ([5]; Any Grade): 27%
- Neutropenia, laboratory abnormality ([5]; Any Grade): 60%
- Pain in extremity ([5]; Any Grade): 15%
- Pneumonia ([5]; Any Grade): 11%
- Pyrexia ([5]; Any Grade): 21%
- Thrombocytopenia, laboratory abnormality ([5]; Any Grade): 48%
- Upper respiratory tract infection ([5]; Any Grade): 20%
- Vomiting ([5]; Any Grade): 14%
- Anemia, laboratory abnormality ([5]; Grade 3): 19%
- Arthralgia ([5]; Grade 3): 0%
- Back pain ([5]; Grade 3): 2%
- Chills ([5]; Grade 3): 0%
- Constipation ([5]; Grade 3): 0%
- Cough ([5]; Grade 3): 0%
- Decreased appetite ([5]; Grade 3): 1%
- Diarrhea ([5]; Grade 3): 1%
- Dyspnea ([5]; Grade 3): 1%
- Fatigue ([5]; Grade 3): 2%
- Headache ([5]; Grade 3): 1%
- Hypertension ([5]; Grade 3): 5%
- Infusion reaction ([5]; Grade 3): 3%
- Lymphopenia, laboratory abnormality ([5]; Grade 3): 30%
- Musculoskeletal chest pain ([5]; Grade 3): 1%
- Nasal congestion ([5]; Grade 3): 0%
- Nasopharyngitis ([5]; Grade 3): 0%
- Nausea ([5]; Grade 3): 0%
- Neutropenia, laboratory abnormality ([5]; Grade 3): 17%
- Pain in extremity ([5]; Grade 3): 1%
- Pneumonia ([5]; Grade 3): 6%
- Pyrexia ([5]; Grade 3): 1%
- Thrombocytopenia, laboratory abnormality ([5]; Grade 3): 10%
- Upper respiratory tract infection ([5]; Grade 3): 1%
- Vomiting ([5]; Grade 3): 0%
- Anemia, laboratory abnormality ([5]; Grade 4): 0%
- Arthralgia ([5]; Grade 4): 0%
- Back pain ([5]; Grade 4): 0%
- Chills ([5]; Grade 4): 0%
- Constipation ([5]; Grade 4): 0%
- Cough ([5]; Grade 4): 0%
- Decreased appetite ([5]; Grade 4): 0%
- Diarrhea ([5]; Grade 4): 0%
- Dyspnea ([5]; Grade 4): 0%
- Fatigue ([5]; Grade 4): 0%
- Headache ([5]; Grade 4): 0%
- Hypertension ([5]; Grade 4): 0%
- Infusion reaction ([5]; Grade 4): 0%
- Lymphopenia, laboratory abnormality ([5]; Grade 4): 10%
- Musculoskeletal chest pain ([5]; Grade 4): 0%
- Nasal congestion ([5]; Grade 4): 0%
- Nasopharyngitis ([5]; Grade 4): 0%
- Nausea ([5]; Grade 4): 0%
- Neutropenia, laboratory abnormality ([5]; Grade 4): 3%
- Pain in extremity ([5]; Grade 4): 0%
- Pneumonia ([5]; Grade 4): 0%
- Pyrexia ([5]; Grade 4): 0%
- Thrombocytopenia, laboratory abnormality ([5]; Grade 4): 8%
- Upper respiratory tract infection ([5]; Grade 4): 0%
- Vomiting ([5]; Grade 4): 0%
- serious adverse reactions ([5]; monotherapy 16 mg/kg, 156 patients): 33%
- patients tested positive for anti-daratumumab antibodies ([6]; 111 evaluable monotherapy patients): none
- patients tested positive for anti-daratumumab antibodies ([6]; of the 1,050 evaluable combination therapy patients): 2
- Overall response rate (ORR) ([7]; N = 106): 29.2%
- Partial response (PR) ([7]; in vivo): 17.0%
- Stringent complete response (sCR) ([7]; in vivo): 2.8%
- Very good partial response (VGPR) ([7]; in vivo): 9.4%
- median duration of response ([7]; in vivo): 7.4 months
- median time to response ([7]; in vivo): 1 month
- Complete response (CR) ([7]; number of patients): 0
- Overall response rate (ORR) ([7]; number of patients): 31
- Partial response (PR) ([7]; number of patients): 18
- Stringent complete response (sCR) ([7]; number of patients): 3
- Very good partial response (VGPR) ([7]; number of patients): 10
- CR, number of patients ([8]; 16 mg/kg, 42 patients): 1
- Overall response rate ([8]; 16 mg/kg, 42 patients): 36%
- VGPR, number of patients ([8]; 16 mg/kg, 42 patients): 3
- median duration of response ([8]; in vivo): not estimable
- median time to response ([8]; in vivo): 1 month
- IRRs Grade 3 or 4 ([9]; at re-initiation following ASCT): < 1%
- incidence of IRRs ([9]; first infusion following ASCT, upon re-initiation): 11%
- Indirect Antiglobulin Test (Indirect Coombs test) result [10]: positive
- persistence of positive indirect antiglobulin test after the last infusion [10]: up to 6 months
- time diluted solution can be stored prior to administration ([11]; refrigerated 2° C.−8° C., protected from light): up to 24 hours
- time diluted solution may be kept ([11]; room temperature, including infusion time): ≤ 15 h
- pH ([11]; solution for intravenous infusion): 5.5
